{"source": "paper PMC7228754", "origin": "cited, not measured here", "target": "Rab1b (Homo sapiens) (UniProt Q9H0U4)", "sequence (Q9H0U4 whole entry)": "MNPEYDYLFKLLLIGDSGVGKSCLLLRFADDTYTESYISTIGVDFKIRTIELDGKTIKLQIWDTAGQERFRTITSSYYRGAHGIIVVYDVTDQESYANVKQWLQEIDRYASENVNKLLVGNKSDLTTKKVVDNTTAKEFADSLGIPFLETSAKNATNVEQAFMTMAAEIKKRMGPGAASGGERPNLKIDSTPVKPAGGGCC", "data": [{"substance": "AnkX (from UniProt Q5ZXN6)", "values": [{"measurement": "Kd", "result": 122, "unit": "µM"}]}]}
